Paper PMC6241121, “hnRNPA2 mediated acetylation reduces telomere length in response to mitochondrial dysfunction”

Molecular target: hnRNPA2 WT (human, UniProt P22626-2 1-341)
Assay: EMSA; not given in the material
Settings: protein: recombinant; tags: N-terminal 6xHis (pET28a)

hnRNPA2 WT, sequence (P22626 other isoform, or with tags, fused parts or gaps): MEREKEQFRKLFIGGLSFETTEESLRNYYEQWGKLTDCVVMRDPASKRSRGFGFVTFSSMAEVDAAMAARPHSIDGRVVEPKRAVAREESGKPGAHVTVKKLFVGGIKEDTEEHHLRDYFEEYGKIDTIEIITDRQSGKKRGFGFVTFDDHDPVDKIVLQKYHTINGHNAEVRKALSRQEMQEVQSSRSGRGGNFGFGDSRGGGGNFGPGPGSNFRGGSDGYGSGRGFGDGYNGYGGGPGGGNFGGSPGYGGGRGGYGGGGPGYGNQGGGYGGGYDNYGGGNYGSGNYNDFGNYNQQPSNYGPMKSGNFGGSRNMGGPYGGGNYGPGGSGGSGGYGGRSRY

TTAGGGTTAGGGTTAGGGTTAGGGTTAGGG (ssDNA) [single-stranded telomeric DNA probe]: binds.
